Data published in patent publication US8802826B2, “Anti-clusterin antibodies and antigen binding fragments and their use to reduce tumor volume” (Alethia Biotherapeutics Inc., priority 2009, dated 2014).

Key:
[1] = tested on: PC-3 prostate cancer cells; test: PC-3 prostate tumor xenograft; format: in vivo, SCID mice; details: single injection 10 mg/kg i.p. on day 5
Experimental: PC-3 prostate cancer cells (2×10^6) were implanted s.c. into SCID mice and allowed to grow until the tumor sizes were approximately 100 mm^3. Tumors were measured bi-weekly with a digital caliper and tumor volumes were calculated as L×W×H. Each group contained 8 animals that were randomized prior to the beginning off the treatments. The results were expressed as mm^3±SEM.
A second prostate cancer model study was conducted in a different tumor model by implanting PC-3 prostate cancer cells. PC-3 cells are also hormone-insensitive but are documented as being slightly more invasive than the DU145 cells. As was described above, the cells were implanted sub-cutaneously in SCID mice and treatments were initiated when the tumors reached a volume of approximately 100 mm^3 (designated day 1). The h16B5 injections were administered i.p. on day 1 at 5 mg/kg and continued twice per week thereafter whereas a single TxT injection at 10 mg/kg was administered i.p. on day 5.

[2] = biological target: T1, human clusterin (recombinant monomeric clusterin) (Homo sapiens, UniProt P10909); test: BIAcore kinetic analysis of antibody binding to immobilized clusterin; details: for KD of the interaction with immobilized human clusterin: stated in words
T1 construct: Recombinant monomeric clusterin was immobilized on a CM3 chip with normal amine coupling method
Experimental: The purpose of these investigations is to determine the kinetics parameters of anti-clusterin antibodies. In particular, to determine whether the humanization of the 16B5 and 21B12 anti-clusterin monoclonal antibody affects the kinetics parameters of its binding to human clusterin. To this end, a kinetic analysis method was developed using the BIAcore 3000. Human clusterin was immobilized on a sensor chip. Full length antibodies or Fab fragments were injected and allowed to interact with the immobilized clusterin. This example described the exemplary antibody 16B5 but the 21B12 exemplary antibody was prepared and tested in a similar manner.
HBST (10 mM Hepes pH 7.4, 135 mM NaCl, 3.4 mM EDTA, 0.005% Tween 20) was used as running buffer for all BIAcore experiments. Recombinant monomeric clusterin was immobilized on a CM3 chip with normal amine coupling method at a flow of 5 μl/min. Surface was activated with 35 μl of a mixture of 50 mM NHS/0.2M EDC. Clusterin in 10 mM Na-acetate pH 4.5 was injected until a desired amount was captured (below 60RU). Unreacted esters were deactivated with 35 μL1 of 1M ethanolamine hydrochloride-NaOH pH8.5. A control surface was prepared by injecting NHS/EDC and ethanolamine in the same manner.
Kinetics analysis was conducted at a flow of 50 μl/min. Full length antibodies (mouse or humanized) or Fab were diluted in HBST. Concentration range was from 1.953-31.25 nM for the full length antibodies and 15.625-250 nM for the Fab. Each concentration was injected over the clusterin and a control surface for 5 min followed with a 5 min dissociation wash. The clusterin surface was regenerated between each antibody injection with 50 μl of 20 mM HCl.

[3] = tested on: EMT6 cells; test: wound healing (scratch) migration assay; format: cell-based, mouse; details: 37 C for 15 h
Experimental: FIG. 4. h16B5 blocks the migration of cancer cell lines.
To test the activity of anti-clusterin antibodies against cancer cell migration, a standard wound healing, or scratch assay, was used. In this assay, EMT6 cells, a mouse mammary carcinoma cell line, was plated at high density and subjected to wounding by the creation of a scratch in the cell layer. At time 0, a wide denuded area is evident that quickly fills up after incubation of the cells at 37 C for 15 h (see upper left-hand panels in FIG. 4).

T1 sequence (P10909 23-449): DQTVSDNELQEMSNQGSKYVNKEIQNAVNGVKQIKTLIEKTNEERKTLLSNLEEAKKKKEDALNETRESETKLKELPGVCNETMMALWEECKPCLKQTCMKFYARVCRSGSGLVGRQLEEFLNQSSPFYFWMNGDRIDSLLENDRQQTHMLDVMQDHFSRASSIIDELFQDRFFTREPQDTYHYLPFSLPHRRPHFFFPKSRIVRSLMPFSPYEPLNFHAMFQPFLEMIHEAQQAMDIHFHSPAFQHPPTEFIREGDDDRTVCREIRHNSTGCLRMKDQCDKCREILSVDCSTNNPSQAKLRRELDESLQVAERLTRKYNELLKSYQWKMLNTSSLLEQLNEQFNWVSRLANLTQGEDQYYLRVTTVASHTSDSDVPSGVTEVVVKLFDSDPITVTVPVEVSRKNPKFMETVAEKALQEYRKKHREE

In the case of `CC(=O)O[C@@]12CO[C@@H]1C[C@H](O)[C@@]1(C)C(=O)[C@H](O)C3=C(C)[C@@H](OC(=O)[C@H](O)[C@@H](NC(=O)OC(C)(C)C)c4ccccc4)C[C@@](O)([C@@H](OC(=O)c4ccccc4)[C@H]21)C3(C)C` [TxT, taxotere, reference compound], the “time after injection at which tumors appeared to recover from treatment” value [1] is reported as “approximately 18 days”.

B1: HH16B5 Fab: Fab fragment of humanized 16B5 prepared by papain digestion (antibody, V domains shown)
VH: QVQLVQSGAEVKKPGATVKISCKVSGFNIKDIYMHWVQQAPGKGLEWMGRIDPAYGNTKYDPKFQGRVTITADTSTDTAYMELSSLRSEDTAVYYCARRYDTAMDYWGQGTLVTVSS
VL: DIVMTQSPDSLAVSLGERATINCKSSQSLLNSRTRKNYLAWYQQKPGQPPKLLIYWASTRESGVPDRFSGSGSGTDFTLTISSLQAEDVAVYYCKQSYNLWTFGQGTKLEIK
For B1, the “kinetics parameters compared with the parent mouse antibody” value ([2]; full length vs full length, Fab vs Fab) was “slightly better”.

B2: mouse 16B5: parent mouse anti-clusterin monoclonal antibody, VL SEQ ID NO.:25, VH SEQ ID NO.:29 (antibody, V domains shown)
VH: EVQLQQSGAELVKPGASVRLSCTTSGFNIKDIYMHWVKQRPEQGLEWIGRIDPAYGNTKYDPKFQGKATITADTSSNTAYLQLSSLTSEDTAVYYCARRYDTAMDYWGQGTSVTVSS
VL: DIVMSQSPSSLAVSAGEKVTMSCKSSQSLLNSRTRKNYLAWYQQKPGQSPKLLIYWASTRESGVPDRFTGSGSGTDFTLTISSVQAEDLAVYYCKQSYNLWTFGGGTKLEFK
modifications: murine 16B5 VH; murine 16B5 VL
B2 was tested, and the “KD of the interaction with immobilized human clusterin” value [2] was “low nM range” and the “migration of cells into the denuded area” value [3] was “reduced number of cells in the denuded area”.

B3: mouse 21B12: parent mouse anti-clusterin monoclonal antibody, VL SEQ ID NO.:33, VH SEQ ID NO.:37 (antibody, V domains shown)
VH: QIQLVQSGPELKKPGETVKISCKASGYTFTNYGMHWVKQAPGKGLKWMGWINTYTGEPTYADDFKGRFAFSLETSASTAYLQINNLKNEDTATYFCARDGFLYFFDYWGQGTTLTVSS
VL: DIVMSQSPSSLAVSVGEKVTMSCKSSQSLLYSSNQKNYLAWYQQRPGQSPKLLIYWASTRESGVPDRFTGSGSGTDFTLTISSVKAEDLAVYYCQQYYIYPRTFGGGTKLEIK
modifications: murine 21B12 VH; murine 21B12 VL
B3 was tested, and the “KD of the interaction with immobilized human clusterin” value [2] was “low nM range”.
